Results published in paper PMC3836175 (Science (New York, N.Y.), 2013).

Target: T1, N-terminally truncated eIF5B (residues 396-1002) with the point mutation T439A (S. cerevisiae, UniProt P39730 396-1002, T439A)
T1 sequence (looked up): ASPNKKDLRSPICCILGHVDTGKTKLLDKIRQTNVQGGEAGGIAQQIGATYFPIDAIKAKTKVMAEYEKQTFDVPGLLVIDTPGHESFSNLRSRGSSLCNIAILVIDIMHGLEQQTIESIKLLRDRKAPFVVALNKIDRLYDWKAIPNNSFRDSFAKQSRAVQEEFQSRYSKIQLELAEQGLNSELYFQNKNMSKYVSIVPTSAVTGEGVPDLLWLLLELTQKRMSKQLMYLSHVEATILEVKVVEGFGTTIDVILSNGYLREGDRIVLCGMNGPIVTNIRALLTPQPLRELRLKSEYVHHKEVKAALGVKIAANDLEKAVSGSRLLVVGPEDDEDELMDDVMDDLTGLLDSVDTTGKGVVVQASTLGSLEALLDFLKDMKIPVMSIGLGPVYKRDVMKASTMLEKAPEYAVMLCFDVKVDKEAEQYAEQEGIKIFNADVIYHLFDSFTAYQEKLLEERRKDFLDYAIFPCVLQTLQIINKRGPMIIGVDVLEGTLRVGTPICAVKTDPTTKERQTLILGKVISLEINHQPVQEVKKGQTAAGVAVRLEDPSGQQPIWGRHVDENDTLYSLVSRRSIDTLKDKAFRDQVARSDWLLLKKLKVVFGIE
Assay: cryo-EM structure

B1: ribosomal protein S23 (the yeast orthologue of bacterial protein S12) (natural protein, UniProt P0CX29 1-145, looked up)
chain: MGKGKPRGLNSARKLRVHRRNNRWAENNYKKRLLGTAFKSSPFGGSSHAKGIVLEKLGIESKQPNSAIRKCVRVQLIKNGKKVTAFVPNDGCLNFVDENDEVLLAGFGRKGKAKGDIPGVRFKVVKVSGVSLLALWKEKKEKPRS
Q: Does B1 bind?
A: Result: binds
